Reference: US20200164032A1
pKd: −log10 of the molar value.

Tests used:
[1] = target: CXCL10 (as tested against T17; species not stated); assay: BLI (Octet Red), biotinylated T17 on streptavidin biosensors; KD,kin
[2] = target: CXCL12 (hSDF-1b) (Homo sapiens) (UniProt P48061); assay: as above
[3] = target: XCL1 (as tested against T17; species not stated); assay: as above
murine CCL20 (mouse) [4] = target: murine CCL20 (mouse) (UniProt O89093); assay: SPR (Biacore T-100), T17 on CM5 chip; global 1:1 mass transport fit
murine CCL20 (mouse), sequence (O89093 28-97 limits assumed): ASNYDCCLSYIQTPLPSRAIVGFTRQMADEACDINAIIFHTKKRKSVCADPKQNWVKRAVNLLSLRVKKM

murine CCL2 (mouse) [5] = target: murine CCL2 (mouse) (UniProt P10148); assay: as above
murine CCL2 (mouse), sequence (P10148 24-148 limits assumed): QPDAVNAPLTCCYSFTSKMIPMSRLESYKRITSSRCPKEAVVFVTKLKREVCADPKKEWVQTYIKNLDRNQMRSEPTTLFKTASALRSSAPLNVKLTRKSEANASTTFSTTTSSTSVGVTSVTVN

murine CCL3 (mouse) [6] = target: murine CCL3 (mouse) (UniProt P10855); assay: as above
murine CCL3 (mouse), sequence (P10855 24-92 limits assumed): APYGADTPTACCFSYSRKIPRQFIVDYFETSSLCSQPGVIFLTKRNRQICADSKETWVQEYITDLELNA

murine CCL24 (mouse) [7] = target: murine CCL24 (mouse) (UniProt Q9JKC0); assay: as above
murine CCL24 (mouse), sequence (Q9JKC0 27-119 limits assumed): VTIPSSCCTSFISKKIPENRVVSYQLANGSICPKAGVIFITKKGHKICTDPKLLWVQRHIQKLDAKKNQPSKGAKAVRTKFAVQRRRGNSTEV

murine CCL4 (mouse) [8] = target: murine CCL4 (mouse) (UniProt P14097); assay: as above
murine CCL4 (mouse), sequence (P14097 24-92 limits assumed): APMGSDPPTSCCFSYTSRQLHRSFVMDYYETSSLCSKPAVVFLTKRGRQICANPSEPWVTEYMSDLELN

murine CCL11 (mouse) [9] = target: murine CCL11 (mouse) (UniProt P48298); assay: as above
murine CCL11 (mouse), sequence (P48298 24-97 limits assumed): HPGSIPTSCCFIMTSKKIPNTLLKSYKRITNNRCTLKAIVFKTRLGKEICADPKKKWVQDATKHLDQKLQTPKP

murine CCL8 (mouse) [10] = target: murine CCL8 (mouse) (UniProt Q9Z121); assay: as above
murine CCL8 (mouse), sequence (Q9Z121 24-97 limits assumed): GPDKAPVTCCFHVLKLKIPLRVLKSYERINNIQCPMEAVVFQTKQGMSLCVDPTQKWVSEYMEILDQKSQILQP

murine CCL5 (mouse) [11] = target: murine CCL5 (mouse) (UniProt P30882); assay: as above
murine CCL5 (mouse), sequence (P30882 24-91 limits assumed): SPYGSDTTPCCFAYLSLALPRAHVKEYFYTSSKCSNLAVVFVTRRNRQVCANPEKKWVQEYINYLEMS

human CCL2 (human) [12] = target: human CCL2 (human) (UniProt P13500); assay: as above
human CCL2 (human), sequence (P13500 24-99 limits assumed): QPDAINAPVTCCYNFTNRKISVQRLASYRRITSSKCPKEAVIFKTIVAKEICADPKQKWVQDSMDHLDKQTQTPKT

CCL9 [13] = target: CCL9 (UniProt P51670); assay: as above
CCL9, sequence (P51670 22-122 limits assumed): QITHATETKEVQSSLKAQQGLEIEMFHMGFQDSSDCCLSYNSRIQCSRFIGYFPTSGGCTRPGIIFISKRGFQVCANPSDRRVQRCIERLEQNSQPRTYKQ

murine CCL21 (mouse) [14] = target: murine CCL21 (mouse) (UniProt P84444); assay: as above
murine CCL21 (mouse), sequence (P84444 24-133): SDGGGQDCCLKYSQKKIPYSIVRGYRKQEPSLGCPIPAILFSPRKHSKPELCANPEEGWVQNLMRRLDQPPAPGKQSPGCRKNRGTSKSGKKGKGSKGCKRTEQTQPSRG

murine CCL12 (mouse) [15] = target: murine CCL12 (mouse) (UniProt Q62401); assay: as above
murine CCL12 (mouse), sequence (Q62401 23-104 limits assumed): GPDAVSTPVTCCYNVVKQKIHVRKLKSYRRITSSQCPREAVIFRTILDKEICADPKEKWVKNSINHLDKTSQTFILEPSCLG

murine CCL20 (mouse) [16] = target: murine CCL20 (mouse) (UniProt O89093); assay: SPR (Biacore T-100), T17 on CM5 chip; t1/2
murine CCL2 (mouse) [17] = target: murine CCL2 (mouse) (UniProt P10148); assay: SPR (Biacore T-100), T17 on CM5 chip; t1/2
murine CCL3 (mouse) [18] = target: murine CCL3 (mouse) (UniProt P10855); assay: SPR (Biacore T-100), T17 on CM5 chip; t1/2
murine CCL24 (mouse) [19] = target: murine CCL24 (mouse) (UniProt Q9JKC0); assay: SPR (Biacore T-100), T17 on CM5 chip; t1/2
murine CCL4 (mouse) [20] = target: murine CCL4 (mouse) (UniProt P14097); assay: SPR (Biacore T-100), T17 on CM5 chip; t1/2
murine CCL11 (mouse) [21] = target: murine CCL11 (mouse) (UniProt P48298); assay: SPR (Biacore T-100), T17 on CM5 chip; t1/2
murine CCL8 (mouse) [22] = target: murine CCL8 (mouse) (UniProt Q9Z121); assay: SPR (Biacore T-100), T17 on CM5 chip; t1/2
murine CCL5 (mouse) [23] = target: murine CCL5 (mouse) (UniProt P30882); assay: SPR (Biacore T-100), T17 on CM5 chip; t1/2
human CCL2 (human) [24] = target: human CCL2 (human) (UniProt P13500); assay: SPR (Biacore T-100), T17 on CM5 chip; t1/2
CCL9 [25] = target: CCL9 (UniProt P51670); assay: SPR (Biacore T-100), T17 on CM5 chip; t1/2
murine CCL21 (mouse) [26] = target: murine CCL21 (mouse) (UniProt P84444); assay: SPR (Biacore T-100), T17 on CM5 chip; t1/2
murine CCL12 (mouse) [27] = target: murine CCL12 (mouse) (UniProt Q62401); assay: SPR (Biacore T-100), T17 on CM5 chip; t1/2
murine CCL2 (mouse) [28] = target: murine CCL2 (mouse) (UniProt P10148); assay: SPR, T17 amine-coupled to CM5 chip
murine CCL3 (mouse) [29] = target: murine CCL3 (mouse) (UniProt P10855); assay: SPR, T17 amine-coupled to CM5 chip
human CCL2 (human) [30] = target: human CCL2 (human) (UniProt P13500); assay: SPR, T17 amine-coupled to CM5 chip
murine CCL20 (mouse) [31] = target: murine CCL20 (mouse) (UniProt O89093); assay: SPR (Biacore T-100), T17 on CM5 chip; KD,eq
murine CCL2 (mouse) [32] = target: murine CCL2 (mouse) (UniProt P10148); assay: SPR (Biacore T-100), T17 on CM5 chip; KD,eq
murine CCL3 (mouse) [33] = target: murine CCL3 (mouse) (UniProt P10855); assay: SPR (Biacore T-100), T17 on CM5 chip; KD,eq
murine CCL24 (mouse) [34] = target: murine CCL24 (mouse) (UniProt Q9JKC0); assay: SPR (Biacore T-100), T17 on CM5 chip; KD,eq
murine CCL4 (mouse) [35] = target: murine CCL4 (mouse) (UniProt P14097); assay: SPR (Biacore T-100), T17 on CM5 chip; KD,eq
murine CCL11 (mouse) [36] = target: murine CCL11 (mouse) (UniProt P48298); assay: SPR (Biacore T-100), T17 on CM5 chip; KD,eq
murine CCL8 (mouse) [37] = target: murine CCL8 (mouse) (UniProt Q9Z121); assay: SPR (Biacore T-100), T17 on CM5 chip; KD,eq
murine CCL5 (mouse) [38] = target: murine CCL5 (mouse) (UniProt P30882); assay: SPR (Biacore T-100), T17 on CM5 chip; KD,eq
human CCL2 (human) [39] = target: human CCL2 (human) (UniProt P13500); assay: SPR (Biacore T-100), T17 on CM5 chip; KD,eq
CCL9 [40] = target: CCL9 (UniProt P51670); assay: SPR (Biacore T-100), T17 on CM5 chip; KD,eq
murine CCL21 (mouse) [41] = target: murine CCL21 (mouse) (UniProt P84444); assay: SPR (Biacore T-100), T17 on CM5 chip; KD,eq
murine CCL12 (mouse) [42] = target: murine CCL12 (mouse) (UniProt Q62401); assay: SPR (Biacore T-100), T17 on CM5 chip; KD,eq
[43] = target: CXCL10 (as tested against T17; species not stated)
[44] = target: CXCL12 (hSDF-1b) (Homo sapiens) (UniProt P48061)
[45] = target: XCL1 (as tested against T17; species not stated)
murine CCL20 (mouse) [46] = target: murine CCL20 (mouse) (UniProt O89093); assay: SPR (Biacore T-100), T17 on CM5 chip; KD,kin
murine CCL2 (mouse) [47] = target: murine CCL2 (mouse) (UniProt P10148); assay: SPR (Biacore T-100), T17 on CM5 chip; KD,kin
murine CCL3 (mouse) [48] = target: murine CCL3 (mouse) (UniProt P10855); assay: SPR (Biacore T-100), T17 on CM5 chip; KD,kin
murine CCL24 (mouse) [49] = target: murine CCL24 (mouse) (UniProt Q9JKC0); assay: SPR (Biacore T-100), T17 on CM5 chip; KD,kin
murine CCL4 (mouse) [50] = target: murine CCL4 (mouse) (UniProt P14097); assay: SPR (Biacore T-100), T17 on CM5 chip; KD,kin
murine CCL11 (mouse) [51] = target: murine CCL11 (mouse) (UniProt P48298); assay: SPR (Biacore T-100), T17 on CM5 chip; KD,kin
murine CCL8 (mouse) [52] = target: murine CCL8 (mouse) (UniProt Q9Z121); assay: SPR (Biacore T-100), T17 on CM5 chip; KD,kin
murine CCL5 (mouse) [53] = target: murine CCL5 (mouse) (UniProt P30882); assay: SPR (Biacore T-100), T17 on CM5 chip; KD,kin
human CCL2 (human) [54] = target: human CCL2 (human) (UniProt P13500); assay: SPR (Biacore T-100), T17 on CM5 chip; KD,kin
CCL9 [55] = target: CCL9 (UniProt P51670); assay: SPR (Biacore T-100), T17 on CM5 chip; KD,kin
murine CCL21 (mouse) [56] = target: murine CCL21 (mouse) (UniProt P84444); assay: SPR (Biacore T-100), T17 on CM5 chip; KD,kin
murine CCL12 (mouse) [57] = target: murine CCL12 (mouse) (UniProt Q62401); assay: SPR (Biacore T-100), T17 on CM5 chip; KD,kin
[58] = target: CXCL10 (as tested against T17; species not stated); assay: BLI (Octet Red), biotinylated T17 on streptavidin biosensors; KD,eq
[59] = target: CXCL12 (hSDF-1b) (Homo sapiens) (UniProt P48061); assay: as above
[60] = target: XCL1 (as tested against T17; species not stated); assay: as above
[61] = target: CXCL10 (as tested against T17; species not stated); assay: BLI (Octet Red), biotinylated T17 on streptavidin biosensors; t1/2
[62] = target: CXCL12 (hSDF-1a) (Homo sapiens) (UniProt P48061); assay: as above
CXCL12 (hSDF-1a) (Homo sapiens), sequence (P48061 22-89 limits assumed): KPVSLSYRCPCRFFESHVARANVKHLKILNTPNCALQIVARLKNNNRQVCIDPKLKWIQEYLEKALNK

[63] = target: CXCL12 (hSDF-1b) (Homo sapiens) (UniProt P48061); assay: as above
[64] = target: XCL1 (as tested against T17; species not stated); assay: as above

CXCL12 (hSDF-1b) (Homo sapiens), sequence (P48061 22-93): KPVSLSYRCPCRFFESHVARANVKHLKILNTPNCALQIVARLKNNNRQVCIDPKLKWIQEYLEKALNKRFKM

T17 chemokine decoy receptor of Rodent herpesvirus Texas (RHVT), C-terminal His tag (6 histidine residues) fusion
pKd [1]: 7.67
pKd [2]: 7.40
pKd [3]: 7.98
koff (murine CCL20 (mouse) [4]): 0.0192 s⁻¹
kon (murine CCL20 (mouse) [4]): 3.42e+06 M⁻¹ s⁻¹
koff (murine CCL2 (mouse) [5]): 0.00308 s⁻¹
kon (murine CCL2 (mouse) [5]): 431000 M⁻¹ s⁻¹
koff (murine CCL3 (mouse) [6]): 0.0076 s⁻¹
kon (murine CCL3 (mouse) [6]): 2.35e+06 M⁻¹ s⁻¹
koff (murine CCL24 (mouse) [7]): 0.0053 s⁻¹
kon (murine CCL24 (mouse) [7]): 506000 M⁻¹ s⁻¹
koff (murine CCL4 (mouse) [8]): 0.0212 s⁻¹
kon (murine CCL4 (mouse) [8]): 8.12e+07 M⁻¹ s⁻¹
koff (murine CCL11 (mouse) [9]): 0.00637 s⁻¹
kon (murine CCL11 (mouse) [9]): 1.73e+07 M⁻¹ s⁻¹
koff (murine CCL8 (mouse) [10]): 0.0205 s⁻¹
kon (murine CCL8 (mouse) [10]): 1.66e+07 M⁻¹ s⁻¹
koff (murine CCL5 (mouse) [11]): 0.0035 s⁻¹
kon (murine CCL5 (mouse) [11]): 2.41e+06 M⁻¹ s⁻¹
koff (human CCL2 (human) [12]): 0.0265 s⁻¹
kon (human CCL2 (human) [12]): 1.51e+07 M⁻¹ s⁻¹
koff (CCL9 [13]): 0.0298 s⁻¹
kon (CCL9 [13]): 1.65e+06 M⁻¹ s⁻¹
koff (murine CCL21 (mouse) [14]): 0.0132 s⁻¹
kon (murine CCL21 (mouse) [14]): 851000 M⁻¹ s⁻¹
koff (murine CCL12 (mouse) [15]): 0.0396 s⁻¹
kon (murine CCL12 (mouse) [15]): 1.56e+07 M⁻¹ s⁻¹
t1/2 (murine CCL20 (mouse) [16]): 36.1 s
t1/2 (murine CCL2 (mouse) [17]): 225 s
t1/2 (murine CCL3 (mouse) [18]): 90.7 s
t1/2 (murine CCL24 (mouse) [19]): 131 s
t1/2 (murine CCL4 (mouse) [20]): 32.7 s
t1/2 (murine CCL11 (mouse) [21]): 109 s
t1/2 (murine CCL8 (mouse) [22]): 33.9 s
t1/2 (murine CCL5 (mouse) [23]): 196 s
t1/2 (human CCL2 (human) [24]): 26.2 s
t1/2 (CCL9 [25]): 23.3 s
t1/2 (murine CCL21 (mouse) [26]): 52.5 s
t1/2 (murine CCL12 (mouse) [27]): 17.5 s
complex half-life (murine CCL2 (mouse) [28]): 225 s
complex half-life (t1/2) (murine CCL3 (mouse) [29]): 90 s
complex half-life (human CCL2 (human) [30]): 26 s
pKd (murine CCL20 (mouse) [31]): 7.63
pKd (murine CCL2 (mouse) [32]): 7.41
pKd (murine CCL3 (mouse) [33]): 8.17
pKd (murine CCL24 (mouse) [34]): 7.92
pKd (murine CCL4 (mouse) [35]): 8.32
pKd (murine CCL11 (mouse) [36]): 7.47
pKd (murine CCL8 (mouse) [37]): 8.42
pKd (murine CCL5 (mouse) [38]): 8.38
pKd (human CCL2 (human) [39]): 7.83
pKd (CCL9 [40]): 7.41
pKd (murine CCL21 (mouse) [41]): 7.65
pKd (murine CCL12 (mouse) [42]): 7.91
koff [43]: 0.0174 s⁻¹
kon [43]: 812000 M⁻¹ s⁻¹
koff [44]: 0.0173 s⁻¹
kon [44]: 436000 M⁻¹ s⁻¹
koff [45]: 0.0127 s⁻¹
kon [45]: 1.23e+06 M⁻¹ s⁻¹
pKd (murine CCL20 (mouse) [46]): 8.25
pKd (murine CCL2 (mouse) [47]): 8.15
pKd (murine CCL3 (mouse) [48]): 8.49
pKd (murine CCL24 (mouse) [49]): 7.98
pKd (murine CCL4 (mouse) [50]): 9.80
pKd (murine CCL11 (mouse) [51]): 9.43
pKd (murine CCL8 (mouse) [52]): 8.91
pKd (murine CCL5 (mouse) [53]): 8.83
pKd (human CCL2 (human) [54]): 8.75
pKd (CCL9 [55]): 7.74
pKd (murine CCL21 (mouse) [56]): 7.81
pKd (murine CCL12 (mouse) [57]): 8.60
pKd [58]: 7.61
pKd [59]: 7.35
pKd [60]: 7.72
t1/2 [61]: 39.8 s
t1/2 [62]: 20.2 s
t1/2 [63]: 40.1 s
t1/2 [64]: 54.6 s
